Assay results as given in patent US20080293631.

Target: T1, endothelial protein C receptor (UniProt Q9UNN8)
T1 sequence: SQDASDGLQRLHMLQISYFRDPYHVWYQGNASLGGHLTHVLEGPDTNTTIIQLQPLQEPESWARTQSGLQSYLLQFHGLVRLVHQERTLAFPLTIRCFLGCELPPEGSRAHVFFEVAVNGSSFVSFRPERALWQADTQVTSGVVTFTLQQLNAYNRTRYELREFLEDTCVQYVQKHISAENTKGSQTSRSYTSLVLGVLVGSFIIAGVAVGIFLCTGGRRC

Substance: Activated protein C
- LPS-induced NF-κB activity (western blot for the active form of NF-κB in lysates of RA monocytes): APC's inhibitory effect on LPS-induced NF-κB activity was almost totally reversed by RCR252, whereas RCR92 had only limited effect
